# Test results: the supplement of paper PMC10567573
# B1: TMEM192 (parent)
# chain: ILGKVILWILHLLLECYIQYHHSK
# Variants of: B1
# Experiment: protein stability index of a GFP-peptide fusion (GPS, HEK-293T) (PSI 1-6); higher = more stable
# Details: c terminus: a fixed tail appended
# 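Further: lentivirally expressed fusions sorted by FACS into six bins by GFP to DsRed ratio, PSI derived from sequencing read proportions per bin multiplied by bin number.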
row,Variant,protein stability index
1,ILRKVILWILHLLLECYIQYHHSK,3.69
2,ILGKVIIWILHLLLECYIQYHHSK,2.24
3,ILGKVIHWILHLLLECYIQYHHSK,2.6
4,ILGKVIEWILHLLLECYIQYHHSK,3.07
5,ILGKVIKWILHLLLECYIQYHHSK,2.36
6,ILGKVITWILHLLLECYIQYHHSK,3.57
7,ILGKVIWWILHLLLECYIQYHHSK,3.41
8,ILGKVINWILHLLLECYIQYHHSK,2.51
9,ILGKVIGWILHLLLECYIQYHHSK,4.45
10,ILGKVICWILHLLLECYIQYHHSK,2.19
11,ILGKVIFWILHLLLECYIQYHHSK,2.7
12,ILGKVIYWILHLLLECYIQYHHSK,2.85
13,ILGKVIMWILHLLLECYIQYHHSK,1.54
14,ILGKVIQWILHLLLECYIQYHHSK,3.32
15,ILGKVIVWILHLLLECYIQYHHSK,1.74
16,ILGKVIPWILHLLLECYIQYHHSK,1.85
17,ILGKVIDWILHLLLECYIQYHHSK,2.86
18,ILGKVISWILHLLLECYIQYHHSK,3.17
19,ILGKVIRWILHLLLECYIQYHHSK,1.75
20,ILGKVILRILHLLLECYIQYHHSK,2.25
21,ILGKVILLILHLLLECYIQYHHSK,2.26
22,ILGKVILIILHLLLECYIQYHHSK,2.08
23,ILGKVILSILHLLLECYIQYHHSK,3.6
24,ILGKVILKILHLLLECYIQYHHSK,2.89

row,Variant,protein stability index
1,ILGKVILNILHLLLECYIQYHHSK,3.71
2,ILGKVILAILHLLLECYIQYHHSK,2.92
3,ILGKVILEILHLLLECYIQYHHSK,2.47
4,ILGKVILHILHLLLECYIQYHHSK,3.31
5,ILGKVILGILHLLLECYIQYHHSK,2.02
6,ILGKVILYILHLLLECYIQYHHSK,2.98
7,ILGKVILQILHLLLECYIQYHHSK,2.89
8,ILGKVILFILHLLLECYIQYHHSK,3.29
9,ILGKVILDILHLLLECYIQYHHSK,2.44
10,ILGKVILPILHLLLECYIQYHHSK,2.6
11,ILGKVILVILHLLLECYIQYHHSK,3.11
12,ILGKVILTILHLLLECYIQYHHSK,3.65
13,ILGKVILMILHLLLECYIQYHHSK,3.22
14,ILGYVILWILHLLLECYIQYHHSK,2.87
15,ILGEVILWILHLLLECYIQYHHSK,2.46
16,ILGHVILWILHLLLECYIQYHHSK,4.67
17,ILGNVILWILHLLLECYIQYHHSK,2.98
18,ILGFVILWILHLLLECYIQYHHSK,3.11
19,ILGWVILWILHLLLECYIQYHHSK,2.93
20,ILGMVILWILHLLLECYIQYHHSK,3.11
21,ILGVVILWILHLLLECYIQYHHSK,2.92
22,ILGPVILWILHLLLECYIQYHHSK,1.73
23,ILGGVILWILHLLLECYIQYHHSK,3.12
24,ILGRVILWILHLLLECYIQYHHSK,1.83

row,Variant,protein stability index
1,ILGIVILWILHLLLECYIQYHHSK,2.81
2,ILGSVILWILHLLLECYIQYHHSK,2.9
3,ILGDVILWILHLLLECYIQYHHSK,3.04
4,ILGAVILWILHLLLECYIQYHHSK,2.97
5,ILGLVILWILHLLLECYIQYHHSK,3.75
6,ILGTVILWILHLLLECYIQYHHSK,2.8
7,ILGKVILWYLHLLLECYIQYHHSK,2.94
8,ILGKVILWDLHLLLECYIQYHHSK,2.89
9,ILGKVILWQLHLLLECYIQYHHSK,2.8
10,ILGKVILWKLHLLLECYIQYHHSK,3.67
11,ILGKVILWVLHLLLECYIQYHHSK,3.3
12,ILGKVILWGLHLLLECYIQYHHSK,1.96
13,ILGKVILWRLHLLLECYIQYHHSK,2.96
14,ILGKVILWTLHLLLECYIQYHHSK,4.05
15,ILGKVILWELHLLLECYIQYHHSK,4.08
16,ILGKVILWWLHLLLECYIQYHHSK,3.09
17,ILGKVILWMLHLLLECYIQYHHSK,2.58
18,ILGKVILWHLHLLLECYIQYHHSK,3.16
19,ILGKVILWCLHLLLECYIQYHHSK,2.61
20,ILGKVILWNLHLLLECYIQYHHSK,4.27
21,ILGKVILWLLHLLLECYIQYHHSK,2.68
22,ILGKVILWFLHLLLECYIQYHHSK,3.71
23,ILGKVILWPLHLLLECYIQYHHSK,3.29
24,ILGKVILWIAHLLLECYIQYHHSK,2.54

row,Variant,protein stability index
1,ILGKVILWICHLLLECYIQYHHSK,1.5
2,ILGKVILWIDHLLLECYIQYHHSK,2.76
3,ILGKVILWIFHLLLECYIQYHHSK,3.04
4,ILGKVILWIEHLLLECYIQYHHSK,5.03
5,ILGKFILWILHLLLECYIQYHHSK,2.7
6,ILGKGILWILHLLLECYIQYHHSK,3.88
7,ILGKYILWILHLLLECYIQYHHSK,4.62
8,ILGKAILWILHLLLECYIQYHHSK,2.85
9,ILGKCILWILHLLLECYIQYHHSK,2.73
10,ILGKNILWILHLLLECYIQYHHSK,2.55
11,ILGKRILWILHLLLECYIQYHHSK,2.43
12,ILGKTILWILHLLLECYIQYHHSK,2.49
13,ILGKDILWILHLLLECYIQYHHSK,3.49
14,ILGKSILWILHLLLECYIQYHHSK,3.18
15,ILGKQILWILHLLLECYIQYHHSK,2.86
16,ILGKPILWILHLLLECYIQYHHSK,1.85
17,ILGKMILWILHLLLECYIQYHHSK,3.23
18,ILGKIILWILHLLLECYIQYHHSK,3.3
19,ILGKKILWILHLLLECYIQYHHSK,2.08
20,ILGKEILWILHLLLECYIQYHHSK,3.81
21,ILGKHILWILHLLLECYIQYHHSK,2.2
22,ILGKWILWILHLLLECYIQYHHSK,3.91
